Patent US20230129812A1 (ACCELERON PHARMA, published 2023)

B5: BMP10 (ligand, UniProt O95393 317-424, looked up)
chain: NAKGNYCKRTPLYIDFKEIGWDSWIIAPPGYEAYECRGVCNYPLAEHLTPTKHAIIQALVHLKNSQKASKACCVPTKLEPISILYLDKGVVTYKFKYEGMAVSECGCR
B9: GDF11 (ligand, UniProt O95390 299-407, looked up)
chain: NLGLDCDEHSSESRCCRYPLTVDFEAFGWDWIIAPKRYKANYCSGQCEYMFMQKYPHTHLVQQANPRGSAGPCCTPTKMSPINMLYFNDKQQIIYGKIPGMVVDRCGCS
notes: also called BMP11

Assays:
[1] = molecular target: T1, activin A (UniProt P08476 311-426); experiment: SPR (Biacore); ligand coupled, receptor flowed over (as reported in WO2006/012627); - means ~1/2 WT binding
T1 construct: also called ActA
T1 sequence (looked up): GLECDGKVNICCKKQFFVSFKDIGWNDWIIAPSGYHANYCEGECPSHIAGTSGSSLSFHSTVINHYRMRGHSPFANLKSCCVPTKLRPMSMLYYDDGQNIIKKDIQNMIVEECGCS
Excerpt: (§1) Other variants have been generated and tested, as reported in WO2006/012627 (incorporated herein by reference in its entirety). See, e.g., pp. 59-60, using ligands coupled to the device and flowing receptor over the coupled ligands. […] Table 11 showing data with respect to these variants is reproduced below: […]

[2] = molecular target: B9; experiment: SPR (Biacore); ligand coupled, receptor flowed over (as reported in WO2006/012627)
Excerpt: as §1

[3] = molecular target: B9; experiment: SPR (Biacore); ligand coupled, receptor flowed over (as reported in WO2006/012627); - means ~1/2 WT binding
Excerpt: as §1

[4] = molecular target: T1, activin A; experiment: SPR (Biacore); ligand coupled, receptor flowed over (as reported in WO2006/012627); + means WT
Excerpt: as §1

[5] = molecular target: T2, ActRIIA-mFc (human, UniProt P27037 21-135); experiment: SPR (Biacore), similar binding assay
T2 construct: not shown: minimal linker and mouse Fc domain
Experimental: GDF11 or activin A were immobilized on a Biacore™ CM5 chip using standard amine-coupling procedure. ActRIIA-hFc and ActRIIA-mFc proteins were loaded onto the system, and binding was measured. […] Using a similar binding assay, ActRIIA-hFc was determined to have high to moderate affinity for other TGF-beta superfamily ligands including, for example, activin B, GDF8, BMP6, and BMP10. ActRIIA-mFc behaved similarly.

[6] = molecular target: B5; experiment: SPR (Biacore)
[7] = molecular target: T3, GDF8 (UniProt O14793 267-375); experiment: SPR (Biacore)
T3 construct: also called myostatin
T3 sequence (looked up): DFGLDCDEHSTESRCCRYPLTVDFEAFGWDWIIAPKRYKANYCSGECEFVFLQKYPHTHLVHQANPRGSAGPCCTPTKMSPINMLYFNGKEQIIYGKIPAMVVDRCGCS

[8] = molecular target: T4, BMP6 (UniProt P22004 375-513, limits assumed); experiment: SPR (Biacore)
T4 sequence (looked up): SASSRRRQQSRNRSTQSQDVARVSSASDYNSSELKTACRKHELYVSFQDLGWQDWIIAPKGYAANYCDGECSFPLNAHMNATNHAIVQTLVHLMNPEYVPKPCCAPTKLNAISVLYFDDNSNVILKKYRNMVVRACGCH

[9] = molecular target: T5, BMP9 (UniProt Q9UK05 320-429); experiment: SPR (Biacore); receptor-Fc captured by anti-Fc antibody, ligand injected
T5 construct: also called GDF2
T5 sequence (looked up): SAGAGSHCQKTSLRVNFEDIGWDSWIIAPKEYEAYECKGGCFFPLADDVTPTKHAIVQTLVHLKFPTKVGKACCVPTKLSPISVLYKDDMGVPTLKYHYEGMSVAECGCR
Experimental: (§2) A Biacore™-based binding assay was used to compare ligand binding selectivity of the ALK4-Fc:ActRIIB-Fc heterodimeric complex described above with that of ActRIIB-Fc and ALK4-Fc homodimer complexes. The ALK4-Fc:ActRIeB-Fc heterodimer, […], and ALK4-Fc homodimer were independently captured onto the system using an anti-Fc antibody. Ligands were injected and allowed to flow over the captured receptor protein. Results are summarized in Table 13 below, in which ligand off-rates (kd) most indicative of effective polypeptides are denoted in bold.

[10] = molecular target: T6, GDF3 (UniProt Q9NR23 251-364); experiment: as above
T6 construct: also called VGR2
T6 sequence (looked up): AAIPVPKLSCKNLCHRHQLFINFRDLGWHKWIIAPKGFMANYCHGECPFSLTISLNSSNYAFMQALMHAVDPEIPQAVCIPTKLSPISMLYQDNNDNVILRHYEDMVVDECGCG
Experimental: as §2

[11] = molecular target: B9; experiment: as above
Experimental: as §2

[12] = molecular target: T7, activin B (UniProt P09529 293-407); experiment: as above
T7 sequence (looked up): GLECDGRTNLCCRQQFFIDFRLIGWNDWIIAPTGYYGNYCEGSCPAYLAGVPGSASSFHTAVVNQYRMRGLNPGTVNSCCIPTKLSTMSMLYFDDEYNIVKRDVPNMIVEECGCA
Experimental: as §2

[13] = molecular target: B5; experiment: as above
Experimental: as §2

[14] = molecular target: T3, GDF8; experiment: as above
Experimental: as §2

[15] = molecular target: T4, BMP6; experiment: as above
Experimental: as §2

[16] = molecular target: T1, activin A; experiment: as above
Experimental: as §2

[17] = molecular target: T2, ActRIIA-mFc; experiment: SPR (Biacore); ligand amine-coupled to CM5 chip, receptor-Fc injected
[18] = molecular target: T8, Soluble ActRIIB-Fc +15tail (Homo sapiens (Human), UniProt Q13705 19-134); experiment: SPR (Biacore); ligand coupled, receptor flowed over (as reported in WO2006/012627)
T8 construct: not shown: linker and Fc
T8 sequence (looked up): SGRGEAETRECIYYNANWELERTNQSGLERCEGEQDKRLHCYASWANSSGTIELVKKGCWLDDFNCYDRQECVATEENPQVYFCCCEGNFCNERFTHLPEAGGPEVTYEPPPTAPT
Excerpt: as §1

T2 sequence (P27037 21-135): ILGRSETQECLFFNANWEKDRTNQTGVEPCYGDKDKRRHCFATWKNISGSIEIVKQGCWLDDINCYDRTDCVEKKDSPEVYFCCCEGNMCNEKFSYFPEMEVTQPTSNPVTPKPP

B1: Soluble ActRIIB-Fc D54A (Table 11) (Fc fusion, UniProt Q13705 19-119, looked up, not shown: a dimerising Fc or GST)
chain: SGRGEAETRECIYYNANWELERTNQSGLERCEGEQAKRLHCYASWANSSGTIELVKKGCWLDDFNCYDRQECVATEENPQVYFCCCEGNFCNERFTHLPEA
B1: binds [1]; no binding [2].

B2: Soluble ActRIIB-Fc F82A (Table 11) (Fc fusion, UniProt Q13705 19-119, looked up, not shown: a dimerising Fc or GST)
chain: SGRGEAETRECIYYNANWELERTNQSGLERCEGEQDKRLHCYASWANSSGTIELVKKGCWLDDANCYDRQECVATEENPQVYFCCCEGNFCNERFTHLPEA
B2: binds [3].

B3: Soluble ActRIIB-Fc L79A (Table 11) (Fc fusion, UniProt Q13705 19-119, looked up, not shown: a dimerising Fc or GST)
chain: SGRGEAETRECIYYNANWELERTNQSGLERCEGEQDKRLHCYASWANSSGTIELVKKGCWADDFNCYDRQECVATEENPQVYFCCCEGNFCNERFTHLPEA
B3: binds [4]; no binding [2].

B4: Soluble ActRIIB-Fc R40A (Table 11) (Fc fusion, UniProt Q13705 19-119, looked up, not shown: a dimerising Fc or GST)
chain: SGRGEAETRECIYYNANWELEATNQSGLERCEGEQDKRLHCYASWANSSGTIELVKKGCWLDDFNCYDRQECVATEENPQVYFCCCEGNFCNERFTHLPEA
B4: binds [3]; binds [1].

B5: binds [5].

B6: ActRIIB(L79D 25-131)-hFc (Fc fusion)
chain: ETRECIYYNANWELERTNQSGLERCEGEQDKRLHCYASWRNSSGTIELVKKGCWDDDFNCYDRQECVATEENPQVYFCCCEGNFCNERFTHLPEAGGPEVTYEPPPTGGGTHTCPPCPAPELLGGPSVFLFPPKPKDTLMISRTPRVTCVVVDVSHEDPEVKFNWYVDGVEVHNAKTKPREEQYNSTYRVVSVLTVLHQDWLNGKEYKCKVSNKALPAPIEKTISKAKGQPREPQVYTLPPSREEMTKNQVSLTCLVKGFYPSDIAVEWESNGQPENNYKTTPPVLDSDGSFFLYSKLTVDKSRWQQGNVFSCSVMHEALHNHYTQKSLSLSPGK
B6: binds [6]; binds [7]; binds [8].

B7: ActRIIB-Fc homodimer (Fc fusion)
chain: GRGEAETRECIYYNANWELERTNQSGLERCEGEQDKRLHCYASWRNSSGTIELVKKGCWLDDFNCYDRQECVATEENPQVYFCCCEGNFCNERFTHLPEAGGPEVTYEPPPTAPTGGGTHTCPPCPAPELLGGPSVFLFPPKPKDTLMISRTPEVTCVVVDVSHEDPEVKFNWYVDGVEVHNAKTKPREEQYNSTYRVVSVLTVLHQDWLNGKEYKCKVSNKALPVPIEKTISKAKGQPREPQVYTLPPSREEMTKNQVSLTCLVKGFYPSDIAVEWESNGQPENNYKTTPPVLDSDGSFFLYSKLTVDKSRWQQGNVFSCSVMHEALHNHYTQKSLSLSPGK
notes: also called ActRIIB-Fc:ActRIIB-Fc homodimer
Work on B7 yielded a Kd [9] of 0.077 nM, a koff [9] of 0.0011 s⁻¹ and a kon [9] of 1.4e+07 M⁻¹ s⁻¹. For the same binder, the Kd [10] was 1.5 nM, the koff [10] was 0.0022 s⁻¹ and the kon [10] was 1.4e+06 M⁻¹ s⁻¹. For the same binder, the Kd [11] was 0.002 nM, the koff [11] was 0.00011 s⁻¹ and the kon [11] was 5e+07 M⁻¹ s⁻¹. It also gave a Kd [12] of 0.02 nM, a koff [12] of 0.0001 s⁻¹ and a kon [12] of 5.1e+06 M⁻¹ s⁻¹. For the same binder, the Kd [13] was 0.011 nM, the koff [13] was 0.00026 s⁻¹ and the kon [13] was 2.3e+07 M⁻¹ s⁻¹. It also gave a Kd [14] of 0.28 nM, a koff [14] of 0.00023 s⁻¹ and a kon [14] of 830000 M⁻¹ s⁻¹. It also gave a Kd [15] of 0.19 nM, a koff [15] of 0.0068 s⁻¹ and a kon [15] of 3.2e+07 M⁻¹ s⁻¹. For the same binder, the Kd [16] was 0.019 nM, the koff [16] was 0.00023 s⁻¹ and the kon [16] was 1.2e+07 M⁻¹ s⁻¹.

B8: ALK4-Fc:ActRIIB-Fc heterodimer (Fc fusion)
chain 1: GRGEAETRECIYYNANWELERTNQSGLERCEGEQDKRLHCYASWRNSSGTIELVKKGCWLDDFNCYDRQECVATEENPQVYFCCCEGNFCNERFTHLPEAGGPEVTYEPPPTAPTGGGTHTCPPCPAPELLGGPSVFLFPPKPKDTLMISRTPEVTCVVVDVSHEDPEVKFNWYVDGVEVHNAKTKPREEQYNSTYRVVSVLTVLHQDWLNGKEYKCKVSNKALPAPIEKTISKAKGQPREPQVYTLPPSRKEMTKNQVSLTCLVKGFYPSDIAVEWESNGQPENNYKTTPPVLKSDGSFFLYSKLTVDKSRWQQGNVFSCSVMHEALHNHYTQKSLSLSPGK
chain 2: SGPRGVQALLCACTSCLQANYTCETDGACMVSIFNLDGMEHHVRTCIPKVELVPAGKPFYCLSSEDLRNTHCCYTDYCNRIDLRVPSGHLKEPEHPSMWGPVETGGGTHTCPPCPAPELLGGPSVFLFPPKPKDTLMISRTPEVTCVVVDVSHEDPEVKFNWYVDGVEVHNAKTKPREEQYNSTYRVVSVLTVLHQDWLNGKEYKCKVSNKALPAPIEKTISKAKGQPREPQVYTLPPSREEMTKNQVSLTCLVKGFYPSDIAVEWESNGQPENNYDTTPPVLDSDGSFFLYSDLTVDKSRWQQGNVFSCSVMHEALHNHYTQKSLSLSPG
notes: The receptor parts are the same in all three; also called ALK4-Fc:ActRIIB-Fc heterodimeric complex; ALK4:ActRIIB heterodimer
B8 showed a Kd [9] of 3.4 nM, a Kd [10] of 4.9 nM and a koff [10] of 0.017 s⁻¹. For the same binder, the kon [10] was 3.4e+06 M⁻¹ s⁻¹, the Kd [11] was 0.003 nM and the koff [11] was 0.00011 s⁻¹. It also gave a kon [11] of 3.8e+07 M⁻¹ s⁻¹, a Kd [12] of 0.006 nM and a koff [12] of 4e-05 s⁻¹. It also gave a kon [12] of 7.1e+06 M⁻¹ s⁻¹, a Kd [13] of 0.074 nM and a koff [13] of 0.0041 s⁻¹. The kon [13] was 5.6e+07 M⁻¹ s⁻¹, the Kd [14] was 0.55 nM and the koff [14] was 0.00021 s⁻¹. It also gave a kon [14] of 390000 M⁻¹ s⁻¹, a Kd [15] of 2.7 nM and a koff [15] of 0.0055 s⁻¹. The kon [15] was 2e+06 M⁻¹ s⁻¹, the Kd [16] was 0.012 nM and the koff [16] was 0.00015 s⁻¹. The kon [16] was 1.3e+07 M⁻¹ s⁻¹.

In the case of B9, the binding result [17] is reported as “binds” and the Kd [18] is reported as 19 nM.
